Experimental data reported in patent US9260728B2, “Terpene synthases from Santalum” (UNIVERSITY OF BRITISH COLUMBIA, priority 2009, dated 2016).

Experiments:
[1] = GC-FID determination of reaction products of terpene synthases from FPP with magnesium or manganese; format: biochemical
[2] = as above; format: biochemical; remark: listed apart in the source
Protocol: Enzyme assays for all recombinant proteins were done in triplicate using the GC vial method described by O'Maille et al. (Anal. Biochem. 335:[…] (2004). For enzyme assays where only product identification was needed, 10 μg of protein was used in a final volume of 500 μL of reaction buffer (25 mM HEPES, 10% glycerol, 5 mM DTT and 10 mM of either Mg^2+ or Mn^2+. Substrates (FPP and GPP) were added to a final reaction concentration of 100 μM. Vials were overlaid with 500 μL of hexane to trap volatile products and incubated at 30° C. for 2 h. Mixtures were vortexed for 1 min to extract all volatiles and the vials were centrifuged to separate the organic layer.
Product mixtures were analysed by GC-MS in scan mode for product identification. A standard containing the three santalenes and α-trans-bergamotene was prepared by flash chromatography of 2 mL of neat S. album oil over silica and eluted in hexane. A final yield of 25 mg was resuspended in EtOAc and purity was confirmed by GC-FID with conditions described below. All mass spectra were compared to the NIST 2005 library and the literature. Retention indices were determined for all compounds using an n-alkane standard and compared to the literature (R. P. Adams, “Identification of essential oil components by gas chromatography/mass spectrometry,” Allured Publishing Corporation, Carol Stream, Ill. (1995)).
GC-FID was performed on a Shimadzu GC2010 with a 30 m 0.25 mm ID, 0.25 μm film DB-WAX column with He as the carrier gas. Splitless injection (2 μL) was used for all analyses. Conditions were as follows: injector 200° C., detector 250° C., column flow rate 1 mL/min. Oven program: 40° C. for 3 min, then 8° C./min to 180° C., held 5 min, then 10° C./min to 220° C., held 10 min. Needle height was adjusted to only draw from the upper organic layer of all sample vials. GC-MS was performed on a Shimadzu GC2010 with the same DB-WAX column and using He as the carrier gas. Conditions were as follows: injector 200° C., MS interface 240° C., ion source 200° C. Oven program: 40° C. for 3 min, then 8° C./min to 180° C., held 5 min, then 10° C./min to 220° C., held 10 min. Solvent cut time was set to 5 min. For product identification, total ion monitoring was used, scanning from m/z 45 to m/z 300. For kinetic assays, single ion monitoring of the sesquiterpene base ions m/z 91, 93 and 94 were used. Likewise monoterpene base ions (m/z 69, 71 and 93) were monitored. An internal standard (isobutyl benzene, 30 μM) was added to the hexane used to overlay each reaction. Detector response factors were calculated based on the santalene standard prepared earlier and used to determine the product concentrations for kinetic analysis.

- Relative % composition in oil produced by enzyme: epi-β-santalol [1]: 4.2%
- Relative % composition in oil produced by enzyme: α-santalol [1]: 47.3%
- Relative % composition in oil produced by enzyme: E-α-bergamotol ([2]; GC-FID): 19.2%
- Relative % composition in oil produced by enzyme: β-santalol ([2]; GC-FID): 26.3%
B1: SspiSSy: santalene synthase from Santalum spicatum, gene SEQ ID NO:5, protein SEQ ID NO:6 (protein, listed as Santalum spicatum)
chain: MDSSTATATTAPFIDHTDHVNLKIDNDSSESRRMGNYKPSIWNYDFLQSLAIHHNIVEEKHLKLAEKLKGQVMSMFGAPMEPLAKLELVDVVQRLGLNHQFETEIKEALFSVYKDGSNGWWFGHLHATSLRFRLLRQCGLFIPQDVFKTFQSKTDEFDMKLCDNIKGLLSLYEASFLGWKGENILDEAKAFATKYLKNAWENISQKWLAKRVKHALALPLHWRVPRIEARWFIEAYEQEENMNPTLLKLAKLDFNMVQSIHQKEIGELARWWVTTGLDKLAFARNNLLQSYMWSCAIASDPKFKLARETIVEIGSVLTVVDDAYDVYGSMDELDHYTYSVERWSCVEIDKLPNTLKLIFMSMFNKTNEVGLRVQHERGYNGIPTFIKAWVEQCKAYQKEARWYHGGHTPPLEEYSLNGLVSIGFPLLLITGYIAIAENEAALDKVHPLPDLLHYSSLLSRLINDMGTSPDEMARGDNLKSIHCYMNETGASEEVAREHIKGIIEENWKILNQCCFDQSQFQEPFITFNLNSVRGSHFFYEFGDGFGVTDSWTKVDMKSVLIDPIPLGEE
modifications: SspiSSy Protein
- E-β-farnesene among reaction products (GC-FID) ([2]; FPP Mg, mean): 2.2
- Z-β-farnesene among reaction products (GC-FID) ([2]; FPP Mg, mean): 0.7
- epi-β-santalene among reaction products (GC-FID) ([2]; FPP Mg, mean): 4.2
- α-E-bergamotene among reaction products (GC-FID) ([2]; FPP Mg, mean): 19.2
- α-santalene among reaction products (GC-FID) ([2]; FPP Mg, mean): 47.3
- β-santalene among reaction products (GC-FID) ([2]; FPP Mg, mean): 26.3
- E-β-farnesene among reaction products (GC-FID) ([2]; FPP Mg, replicate 1): 2.5
- Z-β-farnesene among reaction products (GC-FID) ([2]; FPP Mg, replicate 1): 0.7
- epi-β-santalene among reaction products (GC-FID) ([2]; FPP Mg, replicate 1): 4.6
- α-E-bergamotene among reaction products (GC-FID) ([2]; FPP Mg, replicate 1): 19.6
- α-santalene among reaction products (GC-FID) ([2]; FPP Mg, replicate 1): 46.3
- β-santalene among reaction products (GC-FID) ([2]; FPP Mg, replicate 1): 26.4
- E-β-farnesene among reaction products (GC-FID) ([2]; FPP Mg, replicate 2): 2.2
- Z-β-farnesene among reaction products (GC-FID) ([2]; FPP Mg, replicate 2): 0.6
- epi-β-santalene among reaction products (GC-FID) ([2]; FPP Mg, replicate 2): 4.2
- α-E-bergamotene among reaction products (GC-FID) ([2]; FPP Mg, replicate 2): 19.2
- α-santalene among reaction products (GC-FID) ([2]; FPP Mg, replicate 2): 47.4
- β-santalene among reaction products (GC-FID) ([2]; FPP Mg, replicate 2): 26.4
- E-β-farnesene among reaction products (GC-FID) ([2]; FPP Mg, replicate 3): 2.0
- Z-β-farnesene among reaction products (GC-FID) ([2]; FPP Mg, replicate 3): 0.8
- epi-β-santalene among reaction products (GC-FID) ([2]; FPP Mg, replicate 3): 4.0
- α-E-bergamotene among reaction products (GC-FID) ([2]; FPP Mg, replicate 3): 18.9
- α-santalene among reaction products (GC-FID) ([2]; FPP Mg, replicate 3): 48.1
- β-santalene among reaction products (GC-FID) ([2]; FPP Mg, replicate 3): 26.3
- E-β-farnesene among reaction products (GC-FID) ([2]; FPP Mn, mean): 8.2
- Z-β-farnesene among reaction products (GC-FID) ([2]; FPP Mn, mean): 1.0
- epi-β-santalene among reaction products (GC-FID) ([2]; FPP Mn, mean): 1.3
- α-E-bergamotene among reaction products (GC-FID) ([2]; FPP Mn, mean): 78.9
- α-santalene among reaction products (GC-FID) ([2]; FPP Mn, mean): 7.3
- β-santalene among reaction products (GC-FID) ([2]; FPP Mn, mean): 3.4
- E-β-farnesene among reaction products (GC-FID) ([2]; FPP Mn, replicate 1): 8.1
- Z-β-farnesene among reaction products (GC-FID) ([2]; FPP Mn, replicate 1): 1.0
- epi-β-santalene among reaction products (GC-FID) ([2]; FPP Mn, replicate 1): 1.4
- α-E-bergamotene among reaction products (GC-FID) ([2]; FPP Mn, replicate 1): 79.0
- α-santalene among reaction products (GC-FID) ([2]; FPP Mn, replicate 1): 7.2
- β-santalene among reaction products (GC-FID) ([2]; FPP Mn, replicate 1): 3.3
- E-β-farnesene among reaction products (GC-FID) ([2]; FPP Mn, replicate 2): 8.0
- Z-β-farnesene among reaction products (GC-FID) ([2]; FPP Mn, replicate 2): 1.0
- epi-β-santalene among reaction products (GC-FID) ([2]; FPP Mn, replicate 2): 1.7
- α-E-bergamotene among reaction products (GC-FID) ([2]; FPP Mn, replicate 2): 78.6
- α-santalene among reaction products (GC-FID) ([2]; FPP Mn, replicate 2): 7.4
- β-santalene among reaction products (GC-FID) ([2]; FPP Mn, replicate 2): 3.4
- E-β-farnesene among reaction products (GC-FID) ([2]; FPP Mn, replicate 3): 8.4
- Z-β-farnesene among reaction products (GC-FID) ([2]; FPP Mn, replicate 3): 1.0
- epi-β-santalene among reaction products (GC-FID) ([2]; FPP Mn, replicate 3): 0.7
- α-E-bergamotene among reaction products (GC-FID) ([2]; FPP Mn, replicate 3): 79.1
- α-santalene among reaction products (GC-FID) ([2]; FPP Mn, replicate 3): 7.3
- β-santalene among reaction products (GC-FID) ([2]; FPP Mn, replicate 3): 3.5
